{"source": "the DeepSol protein solubility set", "data": [{"test": "soluble on expression in E. coli; label from the status in PepcDB or PDB records", "values": [{"sequence": "MDDEEKDMADSFQNEVPAARVNIKLDLHTGNAKKKVELPLKLLAVGDYSNGKEQRPLSERDKVDINKNNFNSVMAEFSPAVNLTVEDTLNGNGNEQNIALEFKSLKDFEPEQVAKNIPQLRVLLAMRNLLRDLKSNLLDNATFRRELENILKDPTLSSELRDELAKIAPQENV", "soluble on expression in E. coli": "soluble"}, {"sequence": "MSLDKPVIQIHTDNSSLIFRVADNGRLYQSYLGKKLNHEADISHLPQGTEAYITHGMEDYFEPAIHILHNDGNPSLLLKYVSHETKAVSQGVNETIITLGDDKYPVTVKLHYVTYPAEDIIKTYTEISHKEKKPVVLHQYASSMLHLNRAKYYLTEFSGDWAHEANISDQPLEFGKKVLDTKLGARANMFTPPFFQLSLDQLATENCGEVLVGTLGWTGNFRFTFEVDNKNELRIISGINPYASEYYLPAGVVFRTPDFYFTYSANGKGKASRNFHDWARRYQLKDGDETRMTLLNNWEATYFDFNEEKLIGLIGDAAGLGVDMFLLDDGWFANKYPRSSDHQGLGDWDETADKLPNGIGRLVEEATKKGIKFGLWIEPEMVNPKSELYEKHKDWVIHLPNRDEYYFRNQLVLDLSNPKVQDFVFGVVDDLMTKYPGIAFFKWDCNSPITNIYSSYLKEKQSHLYIDYVRGLYNVLERIKTKYPDLPMMLCSGGSGRIDYETLRYFTEFWPSDNTDPIERLFIQWGYSQLFPAKTLCAHVTTWNHDASIKFRTDVAMMGKLGFDIKLSDLNDNEKKFCRDAVTNYNHLKPVVLEGDMYRLVSPYSGNHTSTQYVGKDKKGAVVFAFDIYSRYGEKLLPVRLQGLDAGRQYRVKEINLMPGTNSEGHHHHHH", "soluble on expression in E. coli": "not soluble"}, {"sequence": "MGSDKIHHHHHHMKEISVVLVGIGGYGNKYVEYILREGREKGVRISGVVDPYPQNSRFYDELRSLNVPMYNTLEEFYSHHTADLAIISSPIHYHCEQTCTAVRNGSHVLCEKPAAATVKEVKKMIECREKYGKIVAIGYQWSYNPAVLKLKEDILAGKFGKPVLFKTLVLWPRDTAYYRRNSWAGKLKVNNRWVLDSVAGNATAHFLHNMLFLLGEKMEESAYPESMVAELYRANDIESFDTCALKMTVRKIPVLFFATHAVKERKGPVFEYRFEKARVICNYPEYPESEENLLVVYEDGRKEIYGPTDHGSMRKLWVVVDAARGRKEFICTLESAMAHTIAINGAHVSMKEIQDFPTELKRVEGEPPMIWVEGLKEAMERAYEEEKIFSELNLPWAKRGEEVKLENFEGLEGEITC", "soluble on expression in E. coli": "not soluble"}, {"sequence": "MGSDKIHHHHHHMTNQNYLAKTTNKQYIVKFFGKGTEKLINRQDEKYNLELLKDLGLDVKNYLFDIEAGIKVNEYIESAITLDSTSIKTKFDKITPILQTIHTSAKELRGEFAPFEEIKKYESLIEEQIPYANYESVRNAVFSLEKRLADLGVDRKSCHIDLVPENFIESPQGRLYLIDWEYSSMNDPMWDLAALFLESEFTSQEEETFLSHYESDQTPVSHEKIAIYKILQDTIWSLWTVYKEEQGEDFGDYGVNRYQRAIKGLASYGGSDEK", "soluble on expression in E. coli": "not soluble"}, {"sequence": "MALELSRLPELLSRIDGYKGQPVTRLAVMLNLLVFIRSSELRYARWSEIDIDNSMWTIPAEREPLPGVKFSHRGSKMRTPHLVPLSKQVVAILAELQTWAGENGLIFTGAHDPRKPISENTVNKALRVMGYDTTQEVCGHGFRAMACSALIESGLWSRDAVERQMSHQERNGVRAAYIHKAEHLEERRLMLQWWADFLDANREKGISPFEYAKINNPLKLEHHHHHH", "soluble on expression in E. coli": "soluble"}, {"sequence": "MGSDKIHHHHHHMKVLLYLEAEEYLKKSGIGRAIKHQEKALQIAGIDYTTNPTDDFDLVHMNTYGIRSWLLMSKAKKTGKKVIMHGHSTEEDFRNSFIGSNLVSPLFKWYLCRFYQKADAIITPTDYSKQLIKAYGIKKPIFVLSNGIDLSRYQRSEKKESAFRHYFHLSKDDKVVMGAGLYFMRKGIDQFVEVAAKMPDIRFIWFGETNKWVIPRKVRQIVTKQHPSNVTFAGYIKGDVYEGAMSASDAFFFPSREETEGIVVLEALASHQHVVLRDIPVYHGWVTEDSVELATDVDGFVEKLDKVLSGKSDKIKEGYHVAESRSIERIAHELASVYQKVMEL", "soluble on expression in E. coli": "not soluble"}, {"sequence": "MYQLEKEPIVGAETFYVDGAANRETKLGKAGYVTNRGRQKVVTLTDTTNQKTELQAIYLALQDSGLEVNIVTDSQYALGIITQWIHNWKKRGWKTADKKPVKNVDLVNQIIEQLIKKEKVYLAWVPAHKGIGGNEQVDKLVSAGIRKVLF", "soluble on expression in E. coli": "soluble"}, {"sequence": "MKNEELDFDITVFDEGKADLKAAAIYNVPFFPKGAKADEIYTHIKAQIASMLEVKYIDSKVVSISGEKGDFTVNDEQGLGIKADYIIVATGANKSDIKELEDFVIPHELMPKPNKFCFKHHGRQIIKEGIYAAGLASGVTTMVACAMGSANEAACAILSDIKGAVSVYHDTPLEHHHHHH", "soluble on expression in E. coli": "not soluble"}, {"sequence": "MSLTNHEQVLTDYLAAFIEELVQAGVKEAIISPGSRSTPLALMMAEHPILKIYVDVDERSAGFFALGLAKASKRPVVLLCTSGTAAANYFPAVAEANLSQIPLIVLTADRPHELRNVGAPQAMDQLHLYGSHVKDFTDMALPENSEEMLRYAKWHGSRAVDIAMKTPRGPVHLNFPLREPLVPILEPSPFTATGKKHHHVHIYYTHEVLDDSSIQKMVTECTGKKGVFVVGPIDKKELEQPMVDLAKKLGWPILADPLSGLRSYGALDEVVIDQYDAFLKEAEIIDKLTPEVVIRFGSMPVSKPLKNWLEQLSDIRFYVVDPGAAWKDPIKAVTDMIHCDERFLLDIMQQNMPDDAKDAAWLNGWTSYNKVAREIVLAEMANTTILEEGKIVAELRRLLPDKAGLFIGNSMPIRDVDTYFSQIDKKIKMLANRGANGIDGVVSSALGASVVFQPMFLLIGDLSFYHDMNGLLMAKKYKMNLTIVIVNNDGGGIFSFLPQANEPKYFESLFGTSTELDFRFAAAFYDADYHEAKSVDELEEAIDKASYHKGLDIIEVKTNRHENKANHQALWVKIADALKALDEGHHHHHH", "soluble on expression in E. coli": "soluble"}, {"sequence": "MRFIADLVHEKKQLVEKAEAILNEAEKAGGSLTKEQEQQFNRYKDRITRINDSIDEELSKIRTSEPILNMPHNPMAREDVSKIPVTKAISKSFRGMFYGNETVSLSNNGFHSMDEFLRTLHSGRADNRLINASMVEGIPEFGGYSVPEEYGAFLMDKSLENEIIRPRATVWAMGSETKKVSAFDGADRTNHLFGGISGEWLEEGQTGTRKTAKLRLIQLKAKKLACFSQASNELIADGMSFEEMLAGALIKGLGWYMDYAFINGTGEGQPLGIINDPALITVNKEASQEPATITYQNVVNMFSRLAPSCFTNAVWLANPSVIPQLLTMTITIGTGGAQIPVFREESGKFTLLGKEVLFTEKCPTLGAKGDLILADLSQYAIGMRKEIALDRSNVPGWMEDMTDYRVIVRVDGQGTWDKPITPKNGATLSWAVALEAR", "soluble on expression in E. coli": "soluble"}, {"sequence": "MSLNGKPAVFPEVKSIKITGNKALTTEEIREVMSTSTRNSFFGTGLFAGARRPFIADDFEKDISLIRKLYTFKGYFFADVEPTVKRSKNGDVSITIRIRENQPTLLDSLSYAGLDSIPENLRSRYLKKSLLKLQQIFSVEKLIEERDRTLDFFREHGYTFFHPDSIRITVDTLGLHAGVRFDISLPGRYAYGPVKVFVHDPLKKDNPAIAKTFVRDNVSVTIYGHQKFSPKVFSSAIAWKQGALTRQSLEQRTLENFGSTNLFSSISMQKDAARAGAIPITIDLDPAPKHQIEPKLLVDNRYGSLFVGGALSYENRNLFGAGQQLKLSTNYGRQLSSDTNVLSSLSADQYDKLIPYEFNIKADLVIPRLGKQGSYYNGTVEYAQSKLPVLLDSKRELIRATYSTRPTRVSKLDFDFFELEVARKDSLRGFQQLFKNDLAQNIGINPADPVAVNRGLDSLLQTRLNQTFRLRYSLSNREKSTRSKRSPIWNFSVTAEESGSLLWLIDKYIDKKSYAGFTDSDPQIFGTPYNQYVKLDTQLAVTKNLSPKRQVAARIALGWMSPYGKADTTPEDHRFYAGGSNSMRGWVFGTLGPGSCPNAAVSNFGADIKAELGLEYRIQFFKVFGQESGIALFTDAGNIWDRTGPYAFSLRSLTQDFAWDWGAGLRIGSPIGPFRFDFAWKLHDPANPQPWRFSQTKLTDFTFNFGIGETFEGHHHHHH", "soluble on expression in E. coli": "not soluble"}, {"sequence": "MKIESWKEGDFVNVPGKQAVSLEEFYRMRETTDRILEYIDGAVLMSPSPSTQHQRISGRLHVQLFHFLEGKPCEVFHAPFDIELKNERIEGKKIVVPDLTVICDRSGLTDSKFVGVPTLIIEILSPSNQAYDLVFKLNLYMQYGVGEYWIVNPMHSVVQIYSLNDDGQYEQAGVWKETGMACSRALDGFSVDVEQLFRP", "soluble on expression in E. coli": "not soluble"}, {"sequence": "MGSDKIHHHHHHMERIVDTADGRFDTRLTGTGNVTFILDHGMMSSHYQWGWLRGELLKQGRVFEYSRLGYGRSTRGKTKRLFTRQADELERVLALLDIKGPFVFIGHSLGAYISLELGRRRPDETAGIVLLDPSHPEVDAELPNWYERTQEEWNRFLYVLSHVRPLAWLIPDDLGARMFTSLPEADRIPMWRNMARKNHWRGTLDEWQAVEANNQHVLEVVEHIVPPVLVLSASDWAGGMPENWLNPELTKRINAAHERFAASLPDAAFHVIPNTNHYTIAGFSEEAATTIVSLIRNAFFK", "soluble on expression in E. coli": "not soluble"}, {"sequence": "MNFAQVKDYLVDLQNRIVTGLEQVDGQSFRRDTWDRPEGGGGTSCVIEEGNVLERGGVNFSHVFGKGLPASATAARPELAGRAFEAAGVSLVLHPRNPYAPTVHMNVRFFAATKEGAEPVWWFGGGMDLTPYYGFEEDAVHFHQACKDALQPSGEEYYPRFKKWCDEYFYLKHRKEPRGIGGVFFDDLNQPDFATCFNLTRSVGDHFLAAYVPILQKRRDLPYGERERDFQAYRRGRYVEFNLVWDRGTLFGLQSGGRTESILMSLPPVVKWRYDWSPAAGSPEAKLYTDFLTGRDWLPLGLEHHHHHH", "soluble on expression in E. coli": "soluble"}, {"sequence": "SLQHAPLNFVPDAAKVPPTPGQSPNARWSREAIEALFALPFNDLLFQAQQVHRAHFDANAVQLSTLLSIKTGGCPEDCSYCPQSARYDTGVEAEKLMPIDTVLEAAARAKQNGASRFCMGAAWRNPKPHQLDAVADMVRGVKAMGLETCVTLGMLKQEQAQQLKDAGLDYYNHNLDTAPEFYGEIITTRTYQDRLDTLEHVRDAGINVCCGGIVGLGESRHERAGLVAELANMEPYPDSVPINNLVKVEGTPLAGNEALDPFEFVRTIAVARITMPKAMVRLSAGREAMDDALQALCFMAGANSIFYGEKLLTTDNPEADADRKLLARLGMRVEVQDHLHQAEGAQHSHSSHCHIDITPADEG", "soluble on expression in E. coli": "soluble"}, {"sequence": "MGKAKVPASKRAPSSPVAKPGPVKTLTRKKNKKKKRFWKSKAREVSKKPASGPGAVVRPPKAPEDFSQNWKALQEWLLKQKSQAPEKPLVISQMGSKKKPKIIQQNKKETSPQVKGEEMPAGKDQEASRGSVPSGSKMDRRAPVPRTKASGTEHNKKGTKERTNGDIVPERGDIEHKKRKAKEAAPAPPTEEDIWFDDVDPADIEAAIGPEAAKIARKQLGQSEGSVSLSLVKEQAFGGLTRALALDCEMVGVGPKGEESMAARVSIVNQYGKCVYDKYVKPTEPVTDYRTAVSGIRPENLKQGEELEVVQKEVAEMLKGRILVGHALHNDLKVLFLDHPKKKIRDTQKYKPFKSQVKSGRPSLRLLSEKILGLQVQQAEHCSIQDAQAAMRLYVMVKKEWESMARDRRPLLTAPDHCSDDA", "soluble on expression in E. coli": "soluble"}, {"sequence": "MSLKPASVIIMDEHPIVRMSIEVLLGKNSNIQVVLKTDDSRTAIEYLRTYPVDLVILDIELPGTDGFTLLKRIKSIQEHTRILFLSSKSEAFYAGRAIRAGANGFVSKRKDLNDIYNAVKMILSGYSFFPSETLNFISNTRTPKGGHHDMPLSNREVTVLRYLANGMSNKEIAEQLLLSNKTISAHKANIFSKLGLHSIVELIDYAKSHELLEGHHHHHH", "soluble on expression in E. coli": "soluble"}, {"sequence": "MLNEIICAGFGGQGVLTAGKIIMYVAYKAEKKITWFPSYGNEMRGGSANCNVVVSDEKIANPCVKNPDILLGMNSVSVDKYESLMKKNGYMFVNESLVSKDRKYREDINVIKVPVTEIAQNLGNEKAANICMLGAMVKSLDLFTKEEFESGMCEYFENQGKGKFNSKNVEAFEAGYDYE", "soluble on expression in E. coli": "not soluble"}, {"sequence": "MEDFGRQRPYGDGGMQIQPYHGNQGGDFRSYSASYGTRENNIYDVKKEKSIARSKSWGITDPELQRKKRVASYKMYGVEGKVKGSFRNSFRWLKQRYTQVVYGWW", "soluble on expression in E. coli": "not soluble"}]}]}
